Measurements as given in US20120156198A1 (Hoffmann-La Roche, published 2012).

Columns and labels:
Test in all cases: ELISA, hFc fusion protein captured on anti-human Fc
[1] = molecular target: T1, rhIL-2Rα/hFc (R&D Systems, Cat. No. 1020-RL) (human, UniProt P01589 22-213)
T1 construct: Bought; not shown: human Fc (hFc) of the commercial protein
T1 sequence (looked up): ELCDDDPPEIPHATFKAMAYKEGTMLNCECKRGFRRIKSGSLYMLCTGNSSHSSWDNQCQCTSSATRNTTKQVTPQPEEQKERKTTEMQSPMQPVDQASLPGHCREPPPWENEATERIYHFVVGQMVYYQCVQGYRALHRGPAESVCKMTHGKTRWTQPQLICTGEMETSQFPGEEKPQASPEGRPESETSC
Description: (§1) The test was performed on 384-well microtiter plates (MaxiSorp™, Thermo Scientific Nunc, DK, Cat. No. 464718) at RT. After each incubation step, plates were washed 3 times with PBST. At the beginning, plates were coated with 0.5 μg/ml goat anti-human IgG Fc fragment (Jackson 1 mm. Res., US, Cat. No. 109-006-170) for at least 2 hours (h). Thereafter the wells were blocked with PBS supplemented with 0.2% Tween®-20 and 2% BSA (Roche Diagnostics GmbH, DE) for 1 h. 0.2 μg/ml of recombinant human IL-18Rα-Fc fusion protein (R&D Systems, UK, Cat. No. 816-LR) was captured on plate for 1 h. For testing the binding of antibodies to other proteins of the IL-1 receptor family 0.2 μg/ml of the following recombinant human proteins conjugated to human Fc (hFc) were captured: [0194] rhIL-1RI/hFc (R&D Systems, UK, Cat. No. 269-1R) [0195] rhIL-1sRII/hFc (R&D Systems, UK, Cat. No. 263-2R) [0196] rhIL-1R3/hFc (R&D Systems, UK, Cat. No. 676-CP) [0197] rhIL-2Rα/hFc (R&D Systems, UK, Cat. No. 1020-RL) [0198] rhIL-7Rα/hFc (R&D Systems, UK, Cat. No. 306-IR) [0199] rhIL-15R/hFc (R&D Systems, UK, Cat. No. 147-IR) [0200] rhST-2/hFc (R&D Systems, UK, Cat. No. 523-ST)
(§2) After washing the plate, dilutions of purified antibodies in PBS with 0.05% BSA and 0.2% Tween®-20 were incubated with the receptor proteins for 1 h. Binding of antibodies was detected with 1:2000 diluted horseradish peroxidase (HRP)-conjugates of anti-mouse IgG (GE Healthcare, UK, Cat. No. NA9310V). After 1 h the plates were washed 6 times with PBST and developed with freshly prepared BM Blue® POD substrate solution (BM Blue®: 3,3″-5,5″-Tetramethylbenzidine, Roche Diagnostics GmbH, DE, Cat. No. 11484281001) for 30 minutes at RT. Absorbance was measured at 370 nm. The values were corrected for the control without antibody.

[2] = molecular target: T2, rhIL-1R3/hFc (R&D Systems, Cat. No. 676-CP) (human, UniProt Q9NPH3 21-359, limits assumed)
T2 construct: Bought; not shown: human Fc (hFc) of the commercial protein
T2 sequence (looked up): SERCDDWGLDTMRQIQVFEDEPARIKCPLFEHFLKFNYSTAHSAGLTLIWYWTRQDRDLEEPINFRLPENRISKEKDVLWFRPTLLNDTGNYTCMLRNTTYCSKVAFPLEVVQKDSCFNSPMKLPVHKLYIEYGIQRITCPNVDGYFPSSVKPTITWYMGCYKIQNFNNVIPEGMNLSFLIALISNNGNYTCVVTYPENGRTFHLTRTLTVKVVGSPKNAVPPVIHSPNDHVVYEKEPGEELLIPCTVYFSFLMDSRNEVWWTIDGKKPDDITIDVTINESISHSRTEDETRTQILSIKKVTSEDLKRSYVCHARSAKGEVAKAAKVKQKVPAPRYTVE
Description: as §1, §2

[3] = molecular target: T3, rhST-2/hFc (R&D Systems, Cat. No. 523-ST) (human, UniProt Q01638-2 19-328, limits assumed)
T3 construct: Bought; not shown: human Fc (hFc) of the commercial protein
T3 sequence (looked up): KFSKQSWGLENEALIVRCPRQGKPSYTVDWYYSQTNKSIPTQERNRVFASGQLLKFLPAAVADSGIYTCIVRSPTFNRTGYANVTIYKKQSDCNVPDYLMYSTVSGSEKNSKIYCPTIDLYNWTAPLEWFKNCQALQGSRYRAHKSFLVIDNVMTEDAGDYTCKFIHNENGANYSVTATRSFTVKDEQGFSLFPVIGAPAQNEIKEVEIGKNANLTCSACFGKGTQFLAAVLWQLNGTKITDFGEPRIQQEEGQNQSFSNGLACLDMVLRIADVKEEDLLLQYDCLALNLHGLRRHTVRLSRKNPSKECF
Description: as §1, §2

Measured: absorbance at 370 nm (corrected for the control without antibody)

B1: Mab 2D11 (antibody, V domains shown)
VH: QVQLQQPGAELVKPGASVKMSCKASDYTFTSNWMHWVKQRPGQGLEWIGTIDPSDSYTYYNQKFKGKATLTVDTSSSTAYMHLSSLTSEDSAVYYCTTSGDYDADRYFDVWGAGTTVTVSS
VL: DIVLTQSPASLGVSLGQRATISCRASKSVSTSGDSYMHWYQQKPGQSPKLLIYLASNLESGVPARFSGSGSGTDFTLNIHPVEEEDAATYYCQQSRELPLSFGAGTKLELK
notes: Monoclonal antibody from immunized NMRI mice; detected with anti-mouse IgG1-PE / anti-mouse IgG; also called F20.2D11
0.02: [1] | [2] | [3]
